The text below walks through data of article PMC4159076 (Cell reports, 2013).

The target in series [1] is NPM (Flag-NPM / GST-NPM constructs) (UniProt P06748). Nature of the series: GST pull-down, anti-Flag western blot. Conditions: reference: Flag-NPM wild type; sites S125.
For series [2], the target named is endogenous NPM (human cells) (human (endogenous in HEK293)) (UniProt P06748). Nature of the series: denaturing gel electrophoresis with western blot.
Series [3] concerns the molecule itself. Nature of the series: denaturing gel electrophoresis with western blot.

As for “NPM (Flag-NPM / GST-NPM constructs) (from UniProt P06748) Flag-NPM S125A”, in series [1], the “binding against the reference” value is reported as “weaker”.

Regarding “endogenous NPM (human cells) (from UniProt P06748 1-294) (natural protein)”, the stoichiometry N in series [2] turned out to be 6.

B1: nucleophosmin (NPM) (endogenous, mouse cells) (natural protein, UniProt Q61937 1-292, looked up)
chain: MEDSMDMDMSPLRPQNYLFGCELKADKDYHFKVDNDENEHQLSLRTVSLGAGAKDELHIVEAEAMNYEGSPIKVTLATLKMSVQPTVSLGGFEITPPVVLRLKCGSGPVHISGQHLVAVEEDAESEDEDEEDVKLLGMSGKRSAPGGGNKVPQKKVKLDEDDEDDDEDDEDDEDDDDDDFDEEETEEKVPVKKSVRDTPAKNAQKSNQNGKDLKPSTPRSKGQESFKKQEKTPKTPKGPSSVEDIKAKMQASIEKGGSLPKVEAKFINYVKNCFRMTDQEAIQDLWQWRKSL
Consider B1, for which the “stoichiometry N” value in series [3] turned out to be 6.
